From paper PMC3247260, “Domain Analysis Reveals That a Deubiquitinating Enzyme USP13 Performs Non-Activating Catalysis for Lys63-Linked Polyubiquitin” (PLoS ONE, 2011) come the findings set out here.

Holding throughout (conditions): both partners purified
Test [1] addresses T1, ubiquitin (Ub) (UniProt P0CG48 1-76).
T1 construct: ubiquitin, free monomer; only a GST-fused Ub construct is named in the methods; also called free Ub; monoUb
As to the kind of experiment: ITC; Ub (1 mM stock) injected into USP13-ZnF, USP5-ZnF or its mutants (50 µM), 25 injections of 8 µL; 50 mM Tris, 150 mM NaCl, pH 7.5, 1 mM DTT; 25°C. (Isothermal titration calorimetry measures the heat released or taken up as one component is titrated into another.)

A further test concerns the target T2, linear diUb (UniProt P0CG48 1-76; P0CG48 1-76).
T2 construct: ubiquitin, first unit of the linear (head-to-tail) dimer; ubiquitin, second unit of the linear (head-to-tail) dimer; also called linear linked diUb
Put plainly: ITC; USP13-UBA12 (1.25 mM stock) injected into K63-, K48-, linear diUb (0.1 mM) or monoUb (0.2 mM), 25 injections of 1.5 µL; 50 mM Tris, 150 mM NaCl, pH 7.5; 25°C.

Another test has as its target T3, GST-fused Ub (UniProt P0CG48 1-76).
T3 construct: ubiquitin (Ub); cDNA inserted into pGEX-4T-3; also called GST-Ub; source: E. coli BL21, purified (glutathione agarose)
As to the kind of experiment: pull-down; GST-fused Ub, ISG15, SUMO1 or SUMO2 loaded on glutathione agarose, USP13 or USP13-UBA12 (~100 µM) added; 1-hr incubation, washed three times, eluted by GSH buffer; SDS-PAGE with Coomassie blue staining.

The target in test [2] is T1, ubiquitin (Ub). As to the kind of experiment: NMR titration; 15N-labeled USP13-UBA12 or USP5-ZnF (~0.2 mM) titrated with Ub (or ISG15), 1H-15N HSQC spectra; 20 mM phosphate, 50 mM NaCl, pH 6.5.

What is called Kd is the constant that tells how readily two partners part at equilibrium. Low values mean a tighter complex, high ones a looser complex.

B1: USP5-ZnF R222W (domain or fragment, human, UniProt P45974 169-289, looked up)
chain: WDGEVRQVSKHAFSLKQLDNPARIPPCGWKCSKCDMRENLWLNLTDGSILCGRWYFDGSGGNNHAVEHYRETGYPLAVKLGTITPDGADVYSYDEDDMVLDPSLAEHLSHFGIDMLKMQKT
notes: USP5, human, ZnF domain, residues 169-289, point mutant in pET-M; source: E. coli BL21, purified (Ni-NTA agarose, size-exclusion chromatography)
Turning to B1, the equilibrium dissociation constant (Kd) with ubiquitin (Ub) [1] was found to be 9.1 µM.

B2: ZnF domain of USP5 (USP5-ZnF, residues 169-289), wild type (domain or fragment, human, UniProt P45974 169-289, looked up)
chain: WDGEVRQVSKHAFSLKQLDNPARIPPCGWKCSKCDMRENLWLNLTDGSILCGRRYFDGSGGNNHAVEHYRETGYPLAVKLGTITPDGADVYSYDEDDMVLDPSLAEHLSHFGIDMLKMQKT
notes: USP5 (isopeptidase T, isoT), human, zinc finger (ZnF) domain, residues 169-289, cloned into pET-M; also called WT; source: E. coli BL21, purified (Ni-NTA agarose, size-exclusion chromatography)
B2 displayed a Kd in the test with ubiquitin (Ub) [1] of 2.3 µM.

B3: USP5-ZnF Y223F (domain or fragment, human, UniProt P45974 169-289, looked up)
chain: WDGEVRQVSKHAFSLKQLDNPARIPPCGWKCSKCDMRENLWLNLTDGSILCGRRFFDGSGGNNHAVEHYRETGYPLAVKLGTITPDGADVYSYDEDDMVLDPSLAEHLSHFGIDMLKMQKT
notes: as for B1
In the test with ubiquitin (Ub) [1], B3 displayed a Kd of 6.4 µM.

B4: USP5-ZnF Y261F (domain or fragment, human, UniProt P45974 169-289, looked up)
chain: WDGEVRQVSKHAFSLKQLDNPARIPPCGWKCSKCDMRENLWLNLTDGSILCGRRYFDGSGGNNHAVEHYRETGYPLAVKLGTITPDGADVYSFDEDDMVLDPSLAEHLSHFGIDMLKMQKT
notes: as for B1
As to B4, in the test with ubiquitin (Ub) [1], the affinity, expressed as Kd, was 88 µM.

B5: USP5-ZnF R221K (domain or fragment, human, UniProt P45974 169-289, looked up)
chain: WDGEVRQVSKHAFSLKQLDNPARIPPCGWKCSKCDMRENLWLNLTDGSILCGKRYFDGSGGNNHAVEHYRETGYPLAVKLGTITPDGADVYSYDEDDMVLDPSLAEHLSHFGIDMLKMQKT
notes: as for B1
Turning to B5, the Kd in the test with ubiquitin (Ub) [1] amounted to 100 µM.

B6: USP5-ZnF R222W/Y223F (domain or fragment, human, UniProt P45974 169-289, looked up)
chain: WDGEVRQVSKHAFSLKQLDNPARIPPCGWKCSKCDMRENLWLNLTDGSILCGRWFFDGSGGNNHAVEHYRETGYPLAVKLGTITPDGADVYSYDEDDMVLDPSLAEHLSHFGIDMLKMQKT
notes: as for B1
With B6, binding in the test with ubiquitin (Ub) [1] was characterised by a dissociation constant (Kd) of 16 µM.

B7: tandem UBA domains of USP13 (USP13-UBA12, residues 652-776) (domain or fragment, human, UniProt Q92995 652-776, looked up)
chain: DIDESSVMQLAEMGFPLEACRKAVYFTGNMGAEVAFNWIIVHMEEPDFAEPLTMPGYGGAASAGASVFGASGLDNQPPEEIVAIITSMGFQRNQAIQALRATNNNLERALDWIFSHPEFEEDSDF
notes: USP13, human, tandem UBA domains (UBA1 and UBA2), residues 652-776, cloned into pET-32M; 15N-labelled in the NMR titrations; source: E. coli BL21, purified (Ni-NTA agarose, size-exclusion chromatography)
For B7, the binding result with linear diUb, with GST-fused Ub and with ubiquitin (Ub) [2] was “binds” each time.

B8: USP13 (residues 21-863) (enzyme, human, UniProt Q92995 21-863, looked up)
chain: AGDIGELLVPHMPTIRVPRSGDRVYKNECAFSYDSPNSEGGLYVCMNTFLAFGREHVERHFRKTGQSVYMHLKRHVREKVRGASGGALPKRRNSKIFLDLDTDDDLNSDDYEYEDEAKLVIFPDHYEIALPNIEELPALVTIACDAVLSSKSPYRKQDPDTWENELPVSKYANNLTQLDNGVRIPPSGWKCARCDLRENLWLNLTDGSVLCGKWFFDSSGGNGHALEHYRDMGYPLAVKLGTITPDGADVYSFQEEEPVLDPHLAKHLAHFGIDMLHMHGTENGLQDNDIKLRVSEWEVIQESGTKLKPMYGPGYTGLKNLGNSCYLSSVMQAIFSIPEFQRAYVGNLPRIFDYSPLDPTQDFNTQMTKLGHGLLSGQYSKPPVKSELIEQVMKEEHKPQQNGISPRMFKAFVSKSHPEFSSNRQQDAQEFFLHLVNLVERNRIGSENPSDVFRFLVEERIQCCQTRKVRYTERVDYLMQLPVAMEAATNKDELIAYELTRREAEANRRPLPELVRAKIPFSACLQAFSEPENVDDFWSSALQAKSAGVKTSRFASFPEYLVVQIKKFTFGLDWVPKKFDVSIDMPDLLDINHLRARGLQPGEEELPDISPPIVIPDDSKDRLMNQLIDPSDIDESSVMQLAEMGFPLEACRKAVYFTGNMGAEVAFNWIIVHMEEPDFAEPLTMPGYGGAASAGASVFGASGLDNQPPEEIVAIITSMGFQRNQAIQALRATNNNLERALDWIFSHPEFEEDSDFVIEMENNANANIISEAKPEGPRVKDGSGTYELFAFISHMGTSTMSGHYICHIKKEGRWVIYNDHKVCASERPPKDLGYMYFYRRIPS
notes: Ubiquitin-specific protease 13 (USP13, isoT3), human, residues 21-863, cloned into pET-32M; The results call it full-length USP13; the methods give residues 21-863; also called full-length USP13; source: E. coli BL21, purified (Ni-NTA agarose, size-exclusion chromatography)
For B8, the binding result in the test with GST-fused Ub was “binds”.
